Measurements: the supplement of paper PMC9732359
± gives the uncertainty stated by the source.

Assay: protein stability index of a GFP-peptide fusion (yeast GPS) (PSI 1-4); higher = more stable; sorted into four equal gates, so the index is relative within each strain
Settings: doa10∆
Summary of the method: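 The protein stability index of a peptide was calculated by multiplying its read frequency in each gate by that gate's number and adding the products. The peptides were tiled 17-residue stretches of yeast proteins, fused downstream of GFP on a Cherry-expressing plasmid and carried in yeast as a pooled library. Mid-log cultures in leucine-free medium were sorted into four equal gates by GFP/Cherry ratio, and each gate's plasmids were PCR-amplified and Illumina-sequenced.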

ELDKREDMIDQVSKKLS [SMC3] and ELDPECQLQNSDNSEEE [RRP43] are within error of each other in protein stability index: 3.12 ± 0.061 for the first, 3.14 ± 0.075 for the second.

First: ELDRAAMNDKDLTMGQV [RPO21]
Second: ELEDVAVKKLYAIIINY [YCS4]
The protein stability index of the first is higher: 3.29 ± 0.17 for the first, 1.84 ± 0.057 for the second.

First: ELENNEFTENELNVDSM [ITC1]
Second: ELENSSPELKAELRPLQ [RPS7A]
The protein stability index of the first is higher: 3.38 ± 0.07 for the first, 3.04 ± 0.24 for the second.

Compared with ELESITESITHDSSNGL [NUT1], ELFDILSTSEDVSIEEL [IRR1] is lower in protein stability index: 2.95 ± 0.1 for the first, 2.66 ± 0.17 for the second.

Going from ELGEFFVNGVATSFSRK [FAS2] to ELISLRKILESSNIVNE [YIL149C/MLP2], the protein stability index falls from 2.98 ± 0.07 to 2.17 ± 0.089.

ELKKYMDKKILLNINGS [SMX2] and ELLLTTLSVSHGINLQN [SSN2] are within error of each other in protein stability index: 1.88 ± 0.059 for the first, 1.89 ± 0.044 for the second.

Compared with ELLREWLETYSENRDKF [IRR1], ELLSMNIAPRLRLEDIF [RET1] is lower in protein stability index: 3.34 ± 0.066 for the first, 2.57 ± 0.065 for the second.

First: ELQKSLSLEEVEGHLFE [FAS1]
Second: ELSFYILYSFKLSGKLL [YML103C/NUP188]
The protein stability index of the first is higher: 3.16 ± 0.11 for the first, 1.47 ± 0.043 for the second.

Compared with EMKNIRGPYLVIVPLST [SNF2], EMSNKVLKVDKRFMNTS [BRR2] is higher in protein stability index: 1.44 ± 0.054 for the first, 2.9 ± 0.04 for the second.

First: ENANAANNGAAFSPLTT [MED2]
Second: ENAYKSENAPSASSKEF [YAR002W/NUP60]
The protein stability index of the first is higher: 3.1 ± 0.11 for the first, 2.18 ± 0.066 for the second.

ENCLNNDPEILKKIASI [SWI1] and ENDLLQEFDSELSKEEK [SMC3] are within error of each other in protein stability index: 2.48 ± 0.11 for the first, 2.74 ± 0.3 for the second.

ENDTTLVKTKELIKNYI [FAS1] and ENFAKGEHISAIVPGQS [SWP82] are within error of each other in protein stability index: 3.04 ± 0.13 for the first, 3.01 ± 0.064 for the second.

Compared with ENGIEVELLDSNDRVNP [ITC1], ENGQRDLDRIAAQTLEE [RPS19A] is lower in protein stability index: 3.56 ± 0.078 for the first, 3.2 ± 0.084 for the second.

Going from ENISLAEFILKNRSTIF [BRR2] to ENKTKKDNDKNLKFLKN [SRB4], the protein stability index rises from 2.77 ± 0.082 to 3.42 ± 0.064.

Compared with ENLVVADLESFANNHFL [COR1], ENNDDALDLDLDLFDPD [MED4] is higher in protein stability index: 1.7 ± 0.12 for the first, 2.89 ± 0.067 for the second.

EPAIEEENGDSIKEHST [MED1] and EPIDQNTGIVSSTTGMS [RPT3] are within error of each other in protein stability index: 3.32 ± 0.19 for the first, 3.15 ± 0.11 for the second.

First: EPIEESSQNNSELAPIE [IRR1]
Second: EPIKLEPVKEYTFKTSM [YMR129W/POM152]
The protein stability index of the first is higher: 2.89 ± 0.2 for the first, 2.22 ± 0.098 for the second.

EPPGSNTSFSFTKPPAN [YOR098C/NUP1] and EPVKEYTFKTSMRVKPS [YMR129W/POM152] are within error of each other in protein stability index: 3.12 ± 0.07 for the first, 3.31 ± 0.15 for the second.

EQHEEKAAEGEEKEEEN [QCR6] and EQIDENWSKEDLQKLLK [SWI3] are within error of each other in protein stability index: 3.25 ± 0.12 for the first, 3.16 ± 0.067 for the second.

EQQVKEAEMAYVKAVSD [SMC4] and EQVKDDGTSTEKTFLHL [RPN8] are within error of each other in protein stability index: 3.21 ± 0.082 for the first, 3.28 ± 0.12 for the second.

First: ERAARVAAKIAALAGQQ [RPL5]
Second: ERDEQKRAEKKAKERLQ [SNF2]
The protein stability index of the first is lower: 2.71 ± 0.13 for the first, 3.29 ± 0.12 for the second.

First: ERDTFSDFTFPEYYSTA [DIS3]
Second: EREQPQENKNIDDENIT [SRB4]
The protein stability index of the first is lower: 1.66 ± 0.082 for the first, 3.5 ± 0.055 for the second.

Going from ERTKNAQFIVISLRNNM [SMC4] to ERVRLRPEQLSNIIHDE [SNF6], the protein stability index falls from 2.72 ± 0.13 to 1.73 ± 0.06.

Work on ERVRNFAVIYLCDIDEV [DIB1] yielded a protein stability index of 1.26 ± 0.13.

Same assay, conditions: pdr5∆

Going from EEKEESNLAATKSMVKI [RPN11] to EEKPGLIITRKAFKNNS [SMC4], the protein stability index falls from 3.41 ± 0.11 to 2.88 ± 0.097.

In the case of EELLAQYESQAPDGSAS [SWP82], the protein stability index is reported as 2.95 ± 0.084.
